{
  "source": "patent US20250327097A1",
  "about": "“ORGANISMS PRODUCING LESS CROTONIC ACID” (Global Bioenergies, priority 2021, published 2025)",
  "data": [
    {"test_system": "3-methylcrotonic acid", "type": "biochemical, Yersinia frederiksenii", "set-up": "key: “+” representing a low increase in activity; “++++” representing a high increase in activity", "values": [
      {"molecule": "I283T-P284D-N285M-N287T-L289H-S322T-N388M-K394R-C430A-L432F-L434W-S436N-G462P-A463P (protein) MFLKSLREQINLLKRQGDLRIINRPVDSYLEAAAIIRRSTETKAPVPLMTNIKGYPGCSIVGGLAALSSNPEYPLSRVAMSLGLSTTASAQSIVQYLIDGLKKTPYLPVEIDSNSAPCKQNILRGEDASLAHFPIPQVHQHDGNRYVNTWGVFIVESPDGQWCNWSIQRVQYLNDRQMIALVFPSQHISDIWEEWVKIGKPMPYALVQGCEPIVPYIAGLPLLERNVNEAEYIGALYGKGIEVVKCETHDLRVPASSEVVIEGYFAITREGVEGPFGEFAGYTDMETSHQPILSITAISWQDDPIWPVVAEGKPVDEYHTCTGIGDAAAIQNVLLTANLPVSFVWVPLYSACHLMIVSINRHWRQTHPDLTSEQLTKKVGDVIHQTRMSIKLPRIVVLDDDVDPADTESLLWALATRIHPERKRYFYESAIFPWLNCYSEEERHNRKGKRVIIDALLPENHPPISSFDYAYPDDIKQRVLMHWETDFSHD", "Activity relative to WT": "++++"},
      {"molecule": "I283T-P284D-i284aP-N287P-S322T-N388M-E421V-C430N-L432F-L434W-S436N-H461V-dG462-A463T (protein) MFLKSLREQINLLKRQGDLRIINRPVDSYLEAAAIIRRSTETKAPVPLMTNIKGYPGCSIVGGLAALSSNPEYPLSRVAMSLGLSTTASAQSIVQYLIDGLKKTPYLPVEIDSNSAPCKQNILRGEDASLAHFPIPQVHQHDGNRYVNTWGVFIVESPDGQWCNWSIQRVQYLNDRQMIALVFPSQHISDIWEEWVKIGKPMPYALVQGCEPIVPYIAGLPLLERNVNEAEYIGALYGKGIEVVKCETHDLRVPASSEVVIEGYFAITREGVEGPFGEFAGYTDNEPSLQPILSITAISWQDDPIWPVVAEGKPVDEYHTCTGIGDAAAIQNVLLTANLPVSFVWVPLYSACHLMIVSINRHWRQTHPDLTSEQLTKKVGDVIHQTRMSIKLPKIVVLDDDVDPADTESLLWALATRIHPVRKRYFYESNIFPWLNCYSEEERHNRKGKRVIIDALLPENVGTISSFDYAYPDDIKQRVLMHWETDFSHD", "Activity relative to WT": "++++"},
      {"molecule": "I283T-P284D-N285I-N287T-i287aS-S322T-N388M-K394R-C430A-L432F-L434W-S436N-G462P-A463P (protein) MFLKSLREQINLLKRQGDLRIINRPVDSYLEAAAIIRRSTETKAPVPLMTNIKGYPGCSIVGGLAALSSNPEYPLSRVAMSLGLSTTASAQSIVQYLIDGLKKTPYLPVEIDSNSAPCKQNILRGEDASLAHFPIPQVHQHDGNRYVNTWGVFIVESPDGQWCNWSIQRVQYLNDRQMIALVFPSQHISDIWEEWVKIGKPMPYALVQGCEPIVPYIAGLPLLERNVNEAEYIGALYGKGIEVVKCETHDLRVPASSEVVIEGYFAITREGVEGPFGEFAGYTDIETSLQPILSITAISWQDDPIWPVVAEGKPVDEYHTCTGIGDAAAIQNVLLTANLPVSFVWVPLYSACHLMIVSINRHWRQTHPDLTSEQLTKKVGDVIHQTRMSIKLPRIVVLDDDVDPADTESLLWALATRIHPERKRYFYESAIFPWLNCYSEEERHNRKGKRVIIDALLPENHPPISSFDYAYPDDIKQRVLMHWETDFSHD", "Activity relative to WT": "++++"},
      {"molecule": "I283T-P284D-i284aP-N287P-S322T-N388M-E421V-C430N-L432F-L434W-S436N-H461T-dG462-A463T (protein) MFLKSLREQINLLKRQGDLRIINRPVDSYLEAAAIIRRSTETKAPVPLMTNIKGYPGCSIVGGLAALSSNPEYPLSRVAMSLGLSTTASAQSIVQYLIDGLKKTPYLPVEIDSNSAPCKQNILRGEDASLAHFPIPQVHQHDGNRYVNTWGVFIVESPDGQWCNWSIQRVQYLNDRQMIALVFPSQHISDIWEEWVKIGKPMPYALVQGCEPIVPYIAGLPLLERNVNEAEYIGALYGKGIEVVKCETHDLRVPASSEVVIEGYFAITREGVEGPFGEFAGYTDNEPSLQPILSITAISWQDDPIWPVVAEGKPVDEYHTCTGIGDAAAIQNVLLTANLPVSFVWVPLYSACHLMIVSINRHWRQTHPDLTSEQLTKKVGDVIHQTRMSIKLPKIVVLDDDVDPADTESLLWALATRIHPVRKRYFYESNIFPWLNCYSEEERHNRKGKRVIIDALLPENTGTISSFDYAYPDDIKQRVLMHWETDFSHD", "Activity relative to WT": "++++"},
      {"molecule": "N287K-N388M-K394R-C430N-L432F-L434W-S436N (protein) MFLKSLREQINLLKRQGDLRIINRPVDSYLEAAAIIRRSTETKAPVPLMTNIKGYPGCSIVGGLAALSSNPEYPLSRVAMSLGLSTTASAQSIVQYLIDGLKKTPYLPVEIDSNSAPCKQNILRGEDASLAHFPIPQVHQHDGNRYVNTWGVFIVESPDGQWCNWSIQRVQYLNDRQMIALVFPSQHISDIWEEWVKIGKPMPYALVQGCEPIVPYIAGLPLLERNVNEAEYIGALYGKGIEVVKCETHDLRVPASSEVVIEGYFAITREGVEGPFGEFAGYIPNEKSLQPILSITAISWQDDPIWPVVAEGKPVDEYHTCSGIGDAAAIQNVLLTANLPVSFVWVPLYSACHLMIVSINRHWRQTHPDLTSEQLTKKVGDVIHQTRMSIKLPRIVVLDDDVDPADTESLLWALATRIHPERKRYFYESNIFPWLNCYSEEERHNRKGKRVIIDALLPENHGAISSFDYAYPDDIKQRVLMHWETDFSHD", "Activity relative to WT": "+"},
      {"molecule": "L223Y-I283T-N285P-N287T-Q290E-S322T-N388M-K394R-K423G-C430A-L432F-L434W-S436N-dG462 (protein) MFLKSLREQINLLKRQGDLRIINRPVDSYLEAAAIIRRSTETKAPVPLMTNIKGYPGCSIVGGLAALSSNPEYPLSRVAMSLGLSTTASAQSIVQYLIDGLKKTPYLPVEIDSNSAPCKQNILRGEDASLAHFPIPQVHQHDGNRYVNTWGVFIVESPDGQWCNWSIQRVQYLNDRQMIALVFPSQHISDIWEEWVKIGKPMPYALVQGCEPIVPYIAGLPLYERNVNEAEYIGALYGKGIEVVKCETHDLRVPASSEVVIEGYFAITREGVEGPFGEFAGYTPPETSLEPILSITAISWQDDPIWPVVAEGKPVDEYHTCTGIGDAAAIQNVLLTANLPVSFVWVPLYSACHLMIVSINRHWRQTHPDLTSEQLTKKVGDVIHQTRMSIKLPRIVVLDDDVDPADTESLLWALATRIHPERGRYFYESAIFPWLNCYSEEERHNRKGKRVIIDALLPENHGAISSFDYAYPDDIKQRVLMHWETDFSHD", "Activity relative to WT": "++++"},
      {"molecule": "I283T-N285P-N287T-Q290E-S322T-N388M-K394R-dR422-C430A-L432F-L434W-S436N-dG462 (protein) MFLKSLREQINLLKRQGDLRIINRPVDSYLEAAAIIRRSTETKAPVPLMTNIKGYPGCSIVGGLAALSSNPEYPLSRVAMSLGLSTTASAQSIVQYLIDGLKKTPYLPVEIDSNSAPCKQNILRGEDASLAHFPIPQVHQHDGNRYVNTWGVFIVESPDGQWCNWSIQRVQYLNDRQMIALVFPSQHISDIWEEWVKIGKPMPYALVQGCEPIVPYIAGLPLLERNVNEAEYIGALYGKGIEVVKCETHDLRVPASSEVVIEGYFAITREGVEGPFGEFAGYTPPETSLEPILSITAISWQDDPIWPVVAEGKPVDEYHTCTGIGDAAAIQNVLLTANLPVSFVWVPLYSACHLMIVSINRHWRQTHPDLTSEQLTKKVGDVIHQTRMSIKLPRIVVLDDDVDPADTESLLWALATRIHPERKRYFYESAIFPWLNCYSEEERHNRKGKRVIIDALLPENHGAISSFDYAYPDDIKQRVLMHWETDFSHD", "Activity relative to WT": "++++"},
      {"molecule": "I283T-P284D-i284aP-N287P-S322T-N388M-E421V-C430N-L432F-L434W-S436N-dG462-A463T (protein) MFLKSLREQINLLKRQGDLRIINRPVDSYLEAAAIIRRSTETKAPVPLMTNIKGYPGCSIVGGLAALSSNPEYPLSRVAMSLGLSTTASAQSIVQYLIDGLKKTPYLPVEIDSNSAPCKQNILRGEDASLAHFPIPQVHQHDGNRYVNTWGVFIVESPDGQWCNWSIQRVQYLNDRQMIALVFPSQHISDIWEEWVKIGKPMPYALVQGCEPIVPYIAGLPLLERNVNEAEYIGALYGKGIEVVKCETHDLRVPASSEVVIEGYFAITREGVEGPFGEFAGYTDNEPSLQPILSITAISWQDDPIWPVVAEGKPVDEYHTCTGIGDAAAIQNVLLTANLPVSFVWVPLYSACHLMIVSINRHWRQTHPDLTSEQLTKKVGDVIHQTRMSIKLPKIVVLDDDVDPADTESLLWALATRIHPVRKRYFYESNIFPWLNCYSEEERHNRKGKRVIIDALLPENHGTISSFDYAYPDDIKQRVLMHWETDFSHD", "Activity relative to WT": "++++"},
      {"molecule": "I283T-P284D-N285M-N287T-S322T-N388M-K394R-C430A-L432F-L434W-S436N-G462T-A463P (protein) MFLKSLREQINLLKRQGDLRIINRPVDSYLEAAAIIRRSTETKAPVPLMTNIKGYPGCSIVGGLAALSSNPEYPLSRVAMSLGLSTTASAQSIVQYLIDGLKKTPYLPVEIDSNSAPCKQNILRGEDASLAHFPIPQVHQHDGNRYVNTWGVFIVESPDGQWCNWSIQRVQYLNDRQMIALVFPSQHISDIWEEWVKIGKPMPYALVQGCEPIVPYIAGLPLLERNVNEAEYIGALYGKGIEVVKCETHDLRVPASSEVVIEGYFAITREGVEGPFGEFAGYTDMETSLQPILSITAISWQDDPIWPVVAEGKPVDEYHTCTGIGDAAAIQNVLLTANLPVSFVWVPLYSACHLMIVSINRHWRQTHPDLTSEQLTKKVGDVIHQTRMSIKLPRIVVLDDDVDPADTESLLWALATRIHPERKRYFYESAIFPWLNCYSEEERHNRKGKRVIIDALLPENHTPISSFDYAYPDDIKQRVLMHWETDFSHD", "Activity relative to WT": "++++"},
      {"molecule": "I283T-P284D-i284aP-N287P-S322T-N388M-E421V-R422F-C430N-L432F-L434W-S436N-dG462-A463T (protein) MFLKSLREQINLLKRQGDLRIINRPVDSYLEAAAIIRRSTETKAPVPLMTNIKGYPGCSIVGGLAALSSNPEYPLSRVAMSLGLSTTASAQSIVQYLIDGLKKTPYLPVEIDSNSAPCKQNILRGEDASLAHFPIPQVHQHDGNRYVNTWGVFIVESPDGQWCNWSIQRVQYLNDRQMIALVFPSQHISDIWEEWVKIGKPMPYALVQGCEPIVPYIAGLPLLERNVNEAEYIGALYGKGIEVVKCETHDLRVPASSEVVIEGYFAITREGVEGPFGEFAGYTDNEPSLQPILSITAISWQDDPIWPVVAEGKPVDEYHTCTGIGDAAAIQNVLLTANLPVSFVWVPLYSACHLMIVSINRHWRQTHPDLTSEQLTKKVGDVIHQTRMSIKLPKIVVLDDDVDPADTESLLWALATRIHPVFKRYFYESNIFPWLNCYSEEERHNRKGKRVIIDALLPENHGTISSFDYAYPDDIKQRVLMHWETDFSHD", "Activity relative to WT": "++++"}
    ]}
  ]
}
